Assay results from patent US20130323819A1 (HERA PHARMACEUTICALS, published 2013).

Tests used:
[1] = molecular target: T1, SAI/II antigen (SAI/II adhesion of S. mutans) (Streptococcus mutans, UniProt P23504 39-1532); experiment: ELISA, SAI/II coated, culture supernatant; integrated strain against plasmid strain (same polypeptide, different amount)
T1 construct: Coated on ELISA plates at 1 ug/ml in PBS
T1 sequence (looked up): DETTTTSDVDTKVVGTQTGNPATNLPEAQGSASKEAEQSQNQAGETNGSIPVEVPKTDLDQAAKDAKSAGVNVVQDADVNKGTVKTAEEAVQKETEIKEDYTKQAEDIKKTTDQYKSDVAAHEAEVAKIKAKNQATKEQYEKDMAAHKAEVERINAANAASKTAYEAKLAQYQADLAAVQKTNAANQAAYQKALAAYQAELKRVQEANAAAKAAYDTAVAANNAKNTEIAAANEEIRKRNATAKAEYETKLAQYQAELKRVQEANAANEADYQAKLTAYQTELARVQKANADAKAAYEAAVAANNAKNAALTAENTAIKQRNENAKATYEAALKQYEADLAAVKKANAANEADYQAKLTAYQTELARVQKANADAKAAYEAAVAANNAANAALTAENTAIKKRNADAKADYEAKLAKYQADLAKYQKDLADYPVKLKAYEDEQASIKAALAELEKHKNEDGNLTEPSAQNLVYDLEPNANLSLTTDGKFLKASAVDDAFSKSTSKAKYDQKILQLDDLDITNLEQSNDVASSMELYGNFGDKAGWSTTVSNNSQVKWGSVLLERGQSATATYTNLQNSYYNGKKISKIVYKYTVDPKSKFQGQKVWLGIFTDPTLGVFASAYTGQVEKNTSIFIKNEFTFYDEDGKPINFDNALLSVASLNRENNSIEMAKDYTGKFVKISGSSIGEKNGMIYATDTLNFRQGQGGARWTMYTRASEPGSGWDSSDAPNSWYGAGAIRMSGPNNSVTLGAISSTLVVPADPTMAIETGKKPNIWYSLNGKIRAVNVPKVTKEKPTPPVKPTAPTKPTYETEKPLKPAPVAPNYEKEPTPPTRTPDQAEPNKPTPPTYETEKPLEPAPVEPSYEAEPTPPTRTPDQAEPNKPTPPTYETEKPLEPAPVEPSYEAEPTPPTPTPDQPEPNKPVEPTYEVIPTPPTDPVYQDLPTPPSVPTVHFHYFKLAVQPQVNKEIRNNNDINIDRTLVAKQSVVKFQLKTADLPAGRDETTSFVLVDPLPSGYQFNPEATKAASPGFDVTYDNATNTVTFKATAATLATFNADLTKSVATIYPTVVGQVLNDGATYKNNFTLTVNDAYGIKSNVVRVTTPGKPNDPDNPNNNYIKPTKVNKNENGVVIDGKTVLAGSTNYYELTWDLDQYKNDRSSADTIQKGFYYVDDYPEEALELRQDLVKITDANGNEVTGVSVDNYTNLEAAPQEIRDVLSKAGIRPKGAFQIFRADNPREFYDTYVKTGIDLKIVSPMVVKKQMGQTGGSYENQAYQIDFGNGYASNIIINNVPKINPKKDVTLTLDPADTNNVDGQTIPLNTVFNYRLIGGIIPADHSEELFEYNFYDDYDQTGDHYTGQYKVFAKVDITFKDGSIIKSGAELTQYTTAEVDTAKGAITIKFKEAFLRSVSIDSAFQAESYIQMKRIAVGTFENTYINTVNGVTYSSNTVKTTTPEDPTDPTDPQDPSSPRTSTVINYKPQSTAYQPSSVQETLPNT

[2] = molecular target: T1, SAI/II antigen (SAI/II adhesion of S. …); experiment: ELISA, SAI/II coated, whole bacterial cells; integrated strain against plasmid strain (same polypeptide, different amount)

B1: secreted scFv anti-SAI/II (E-tagged) produced by L. paracasei pAF100 (plasmid) or L. paracasei EM182 (chromosomally integrated) (scFv)
scFv: AIVEGSAAQPAMDAQVKLQESGPDLVKPGASVKISCKASGYTFTDYNIHWVKQSRGKSLEWIGYIYPYNGNTYYNQKFKNKATLTVDNSSTSAYMELRSLTPEDSAVYYCATYFDYWGQGTTVTVSSGGGGSGGGGSGGGGSDIELTQSPAIMSASPGEKVTITCSASSSVSYMHWFQQKPGTSPKLWLYSTSNLASGVPARFSGSGSGTSYSLTISRMEAEDAATYYCHQRTSYPYTFGGGTKLEIKRAAAAGAPVPYPDPLEPRAA
notes: Same polypeptide from the plasmid strain and the integrated strain (pEM182 = pEM76 with the expression cassette of pAF100); tested as culture supernatant; also called pEM182
- fold reduction in binding activity against the corresponding plasmid system (L. paracasei pAF100) [1]: ≥ 8 fold

B2: surface anchored scFv anti-SAI/II (E-tagged) fused to the prtP anchor region, displayed on L. paracasei pAF900 (plasmid) or L. paracasei EM181 (chromosomally … (scFv)
scFv: AIVEGSAAQPAMDAQVKLQESGPDLVKPGASVKISCKASGYTFTDYNIHWVKQSRGKSLEWIGYIYPYNGNTYYNQKFKNKATLTVDNSSTSAYMELRSLTPEDSAVYYCATYFDYWGQGTTVTVSSGGGGSGGGGSGGGGSDIELTQSPAIMSASPGEKVTITCSASSSVSYMHWFQQKPGTSPKLWLYSTSNLASGVPARFSGSGSGTSYSLTISRMEAEDAATYYCHQRTSYPYTFGGGTKLEIKRAAAAGAPVPYPDPLEPRAAASKKTSLLNQLQSVKAALGTDLGNQTDPSTGKTFMAALDDLVAQAQAGTQTADQLQASLAKVLDAVLAKLAEGIKAATPAEVGNAKDAATGKTWYADIADTLTSGQASADASDKLAHLQALQSLKTKVAAAVEAAKTAGKGDDTSGTSDKGGGQGTPAPAPGDTGKNKGDEGSQPSSGGNIPTKPATTTSTSTDDTTDRNGQHTSGKGALPKTAETTERPAFGFLGVIVVSLMGVLGLKRKQREE
modifications: On the cells the chain is covalently linked to the cell wall through the prtP anchor (LPXTG-type motif, here LPKTA at residues 478-482).
notes: Same polypeptide from the plasmid strain and the integrated strain (pEM181 = pEM76 with the expression cassette of pAF900); tested as whole bacterial cells; (precursor, before any processing on anchoring to the cell wall); also called pEM181
- fold lower binding level than L. paracasei pAF900 [2]: < 16 fold

B3: secreted and attached scFv anti-SAI/II (E-tagged) fused to the middle region and C-terminal domain of APF, produced by L. paracasei pAF400 (plasmid) or L. … (scFv)
scFv: AIVEGSAAQPAMDAQVKLQESGPDLVKPGASVKISCKASGYTFTDYNIHWVKQSRGKSLEWIGYIYPYNGNTYYNQKFKNKATLTVDNSSTSAYMELRSLTPEDSAVYYCATYFDYWGQGTTVTVSSGGGGSGGGGSGGGGSDIELTQSPAIMSASPGEKVTITCSASSSVSYMHWFQQKPGTSPKLWLYSTSNLASGVPARFSGSGSGTSYSLTISRMEAEDAATYYCHQRTSYPYTFGGGTKLEIKRAAAAGAPVPYPDPLEPRAAASEELYHTQAAVTQAPVQHQTQTENTNSAATTTAANNTNTQTTTSTVSGSEASAKEWIAGRESGGSYGASNGQYVGKYQLSASYLNGDYSAANQERVADNYVKGRYGSWTAAKAFWQANGWY
notes: Same polypeptide from the plasmid strain and the integrated strain (pEM171 = pEM76 with the expression cassette of pAF400); tested as culture supernatant and as whole cells (attached form); also called pEM171
- fold reduction in binding activity against the corresponding plasmid system (L. paracasei pAF400) [1]: 4 fold
